Reference: patent CN107880130A (SHENZHEN GUOCHUANG NANO ANTIBODY TECH CO LTD, dated 2018)

How the values were obtained:
[1] = target: 癌胚抗原 (CEA, CEACAM5) (UniProt P06731); test: SPR (Biacore T100), antibody captured by Protein A, antigen injected at 100μg/ml
[2] = target: T1, HE4 (UniProt Q14508 31-124); test: SPR (Biacore T100), antibody captured by Protein A, antigen injected
T1 sequence (looked up): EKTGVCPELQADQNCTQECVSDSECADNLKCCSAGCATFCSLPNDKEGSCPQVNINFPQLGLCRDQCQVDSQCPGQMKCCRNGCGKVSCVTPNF

[3] = target: T2, AFP (UniProt P02771 19-609); test: as above
T2 sequence (looked up): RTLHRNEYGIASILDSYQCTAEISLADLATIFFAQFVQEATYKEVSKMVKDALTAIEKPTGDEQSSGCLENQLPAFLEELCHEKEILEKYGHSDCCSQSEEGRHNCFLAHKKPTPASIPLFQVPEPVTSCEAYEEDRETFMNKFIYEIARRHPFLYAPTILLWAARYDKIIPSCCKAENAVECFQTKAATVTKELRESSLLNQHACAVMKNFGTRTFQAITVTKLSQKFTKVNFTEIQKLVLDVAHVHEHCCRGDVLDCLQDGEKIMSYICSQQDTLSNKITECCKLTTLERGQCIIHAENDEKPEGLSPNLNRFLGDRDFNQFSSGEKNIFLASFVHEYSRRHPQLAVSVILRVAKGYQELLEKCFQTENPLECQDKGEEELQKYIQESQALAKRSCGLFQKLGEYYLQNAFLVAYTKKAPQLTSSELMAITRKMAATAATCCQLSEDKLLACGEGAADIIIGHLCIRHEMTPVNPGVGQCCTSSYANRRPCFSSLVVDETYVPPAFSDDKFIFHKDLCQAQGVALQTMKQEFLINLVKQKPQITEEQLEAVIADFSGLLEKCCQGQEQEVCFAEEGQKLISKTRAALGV

[4] = target: T3, CEACAM1 (UniProt P13688 35-428, limits assumed); test: as above
T3 sequence (looked up): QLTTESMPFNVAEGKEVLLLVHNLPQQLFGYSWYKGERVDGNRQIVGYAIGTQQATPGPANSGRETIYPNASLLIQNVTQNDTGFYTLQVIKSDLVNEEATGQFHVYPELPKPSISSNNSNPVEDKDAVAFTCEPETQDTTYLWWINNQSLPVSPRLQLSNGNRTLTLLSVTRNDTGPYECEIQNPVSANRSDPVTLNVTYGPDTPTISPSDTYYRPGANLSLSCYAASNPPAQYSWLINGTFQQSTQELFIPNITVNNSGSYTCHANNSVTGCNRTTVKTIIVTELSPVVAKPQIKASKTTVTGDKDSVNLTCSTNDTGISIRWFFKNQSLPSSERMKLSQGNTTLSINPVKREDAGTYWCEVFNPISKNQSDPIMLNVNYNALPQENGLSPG

[5] = target: T4, CEACAM3 (UniProt P40198 35-155, limits assumed); test: as above
T4 sequence (looked up): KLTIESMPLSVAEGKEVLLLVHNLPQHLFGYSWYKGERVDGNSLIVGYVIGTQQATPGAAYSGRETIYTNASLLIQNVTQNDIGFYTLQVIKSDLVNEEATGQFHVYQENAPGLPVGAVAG

[6] = target: T5, CEACAM6 (UniProt P40199 35-320, limits assumed); test: as above
T5 sequence (looked up): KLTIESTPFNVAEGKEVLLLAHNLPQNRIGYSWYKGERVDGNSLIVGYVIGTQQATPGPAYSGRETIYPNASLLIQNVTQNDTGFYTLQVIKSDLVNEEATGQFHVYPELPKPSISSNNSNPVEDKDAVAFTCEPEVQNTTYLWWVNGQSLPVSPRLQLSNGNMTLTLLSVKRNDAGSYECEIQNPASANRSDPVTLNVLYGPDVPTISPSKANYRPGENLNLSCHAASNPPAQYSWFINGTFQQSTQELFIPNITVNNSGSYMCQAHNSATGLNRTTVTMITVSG

[7] = target: T6, CEACAM8 (UniProt P31997 35-320, limits assumed); test: as above
T6 sequence (looked up): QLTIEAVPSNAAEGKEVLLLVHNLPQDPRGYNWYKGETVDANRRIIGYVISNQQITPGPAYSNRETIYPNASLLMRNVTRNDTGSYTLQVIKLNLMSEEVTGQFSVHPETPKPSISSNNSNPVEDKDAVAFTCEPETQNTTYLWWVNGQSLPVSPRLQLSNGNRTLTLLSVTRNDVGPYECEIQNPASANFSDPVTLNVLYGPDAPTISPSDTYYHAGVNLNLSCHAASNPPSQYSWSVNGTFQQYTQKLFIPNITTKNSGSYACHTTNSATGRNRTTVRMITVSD

B1: 2D5 连接至带有恒定区的载体 (2D5 nanobody with constant region) (Fc fusion)
chain: ESGGGLVQAGGSLRLSCVASGRTFSSHPMGWFRQAPGKEREFVAGISWSGGSTHYADSVKGRFTISRDTAKNTVYLQMNSLKPEDTAVYYCNAALSERTPIATMPSQYDYWGQGT
notes: not shown: constant region from the vector
With B1 the 结合 (SPR binding response) [1] was 53.3, the binding result [2] was “no binding (tested: 100μg/ml)” and the binding result [3] was “no binding (tested: 100μg/ml)”. B1: no binding (tested: 100μg/ml) [4]; no binding (tested: 100μg/ml) [5]; no binding (tested: 100μg/ml) [6]. B1: no binding (tested: 100μg/ml) [7].
